From patent publication US20060223096A1 (GLYCART BIOTECHNOLOGY, published 2006)

Target: T1, human melanoma chondroitin sulfate proteoglycan (MCSP) (human, UniProt Q6UVK1 30-2322)
T1 construct: whole, on cells; also called HMW-MAA; high molecular weight-melanoma-associated antigen
Test: flow cytometry on A375 human melanoma cells; reference antibody of the comparison
Procedure: The purified, monomeric humanized antibody variants were tested for binding to the human HMW-MAA/MCSP antigen on the A375 human melanoma cell line, using a flow cytometry-based assay. 200,000 cells (in 180 μl FACS buffer (PBS containing 2% FCS and 5 mM EDTA) were transferred to 5 ml polystyrene tubes and 20 μl 10 fold concentrated anti-MCSP antibody (primary antibody) samples (1-5000 ng/ml final concentration) or PBS only were added. After gently mixing the samples, the tubes were incubated at 4° C. for 30 min in the dark. Subsequently, samples were washed twice with FACS buffer and pelleted at 300 g for 3 min. Supernatant was aspirated off and cells were taken up in 50 μl FACS buffer and 2 μl secondary antibody (anti-Fc-specific F(ab′)2-FITC fragments (Jackson Immuno Research Laboratories, USA)) was added and the tubes were incubated at 4° C. for 30 min. Samples were washed twice with FACS buffer and taken up in 500 μl of FACS buffer for analysis by Flow Cytometry. Binding was determined by plotting the geometric mean fluorescence against the antibody concentrations.

T1 sequence (Q6UVK1 30-2322): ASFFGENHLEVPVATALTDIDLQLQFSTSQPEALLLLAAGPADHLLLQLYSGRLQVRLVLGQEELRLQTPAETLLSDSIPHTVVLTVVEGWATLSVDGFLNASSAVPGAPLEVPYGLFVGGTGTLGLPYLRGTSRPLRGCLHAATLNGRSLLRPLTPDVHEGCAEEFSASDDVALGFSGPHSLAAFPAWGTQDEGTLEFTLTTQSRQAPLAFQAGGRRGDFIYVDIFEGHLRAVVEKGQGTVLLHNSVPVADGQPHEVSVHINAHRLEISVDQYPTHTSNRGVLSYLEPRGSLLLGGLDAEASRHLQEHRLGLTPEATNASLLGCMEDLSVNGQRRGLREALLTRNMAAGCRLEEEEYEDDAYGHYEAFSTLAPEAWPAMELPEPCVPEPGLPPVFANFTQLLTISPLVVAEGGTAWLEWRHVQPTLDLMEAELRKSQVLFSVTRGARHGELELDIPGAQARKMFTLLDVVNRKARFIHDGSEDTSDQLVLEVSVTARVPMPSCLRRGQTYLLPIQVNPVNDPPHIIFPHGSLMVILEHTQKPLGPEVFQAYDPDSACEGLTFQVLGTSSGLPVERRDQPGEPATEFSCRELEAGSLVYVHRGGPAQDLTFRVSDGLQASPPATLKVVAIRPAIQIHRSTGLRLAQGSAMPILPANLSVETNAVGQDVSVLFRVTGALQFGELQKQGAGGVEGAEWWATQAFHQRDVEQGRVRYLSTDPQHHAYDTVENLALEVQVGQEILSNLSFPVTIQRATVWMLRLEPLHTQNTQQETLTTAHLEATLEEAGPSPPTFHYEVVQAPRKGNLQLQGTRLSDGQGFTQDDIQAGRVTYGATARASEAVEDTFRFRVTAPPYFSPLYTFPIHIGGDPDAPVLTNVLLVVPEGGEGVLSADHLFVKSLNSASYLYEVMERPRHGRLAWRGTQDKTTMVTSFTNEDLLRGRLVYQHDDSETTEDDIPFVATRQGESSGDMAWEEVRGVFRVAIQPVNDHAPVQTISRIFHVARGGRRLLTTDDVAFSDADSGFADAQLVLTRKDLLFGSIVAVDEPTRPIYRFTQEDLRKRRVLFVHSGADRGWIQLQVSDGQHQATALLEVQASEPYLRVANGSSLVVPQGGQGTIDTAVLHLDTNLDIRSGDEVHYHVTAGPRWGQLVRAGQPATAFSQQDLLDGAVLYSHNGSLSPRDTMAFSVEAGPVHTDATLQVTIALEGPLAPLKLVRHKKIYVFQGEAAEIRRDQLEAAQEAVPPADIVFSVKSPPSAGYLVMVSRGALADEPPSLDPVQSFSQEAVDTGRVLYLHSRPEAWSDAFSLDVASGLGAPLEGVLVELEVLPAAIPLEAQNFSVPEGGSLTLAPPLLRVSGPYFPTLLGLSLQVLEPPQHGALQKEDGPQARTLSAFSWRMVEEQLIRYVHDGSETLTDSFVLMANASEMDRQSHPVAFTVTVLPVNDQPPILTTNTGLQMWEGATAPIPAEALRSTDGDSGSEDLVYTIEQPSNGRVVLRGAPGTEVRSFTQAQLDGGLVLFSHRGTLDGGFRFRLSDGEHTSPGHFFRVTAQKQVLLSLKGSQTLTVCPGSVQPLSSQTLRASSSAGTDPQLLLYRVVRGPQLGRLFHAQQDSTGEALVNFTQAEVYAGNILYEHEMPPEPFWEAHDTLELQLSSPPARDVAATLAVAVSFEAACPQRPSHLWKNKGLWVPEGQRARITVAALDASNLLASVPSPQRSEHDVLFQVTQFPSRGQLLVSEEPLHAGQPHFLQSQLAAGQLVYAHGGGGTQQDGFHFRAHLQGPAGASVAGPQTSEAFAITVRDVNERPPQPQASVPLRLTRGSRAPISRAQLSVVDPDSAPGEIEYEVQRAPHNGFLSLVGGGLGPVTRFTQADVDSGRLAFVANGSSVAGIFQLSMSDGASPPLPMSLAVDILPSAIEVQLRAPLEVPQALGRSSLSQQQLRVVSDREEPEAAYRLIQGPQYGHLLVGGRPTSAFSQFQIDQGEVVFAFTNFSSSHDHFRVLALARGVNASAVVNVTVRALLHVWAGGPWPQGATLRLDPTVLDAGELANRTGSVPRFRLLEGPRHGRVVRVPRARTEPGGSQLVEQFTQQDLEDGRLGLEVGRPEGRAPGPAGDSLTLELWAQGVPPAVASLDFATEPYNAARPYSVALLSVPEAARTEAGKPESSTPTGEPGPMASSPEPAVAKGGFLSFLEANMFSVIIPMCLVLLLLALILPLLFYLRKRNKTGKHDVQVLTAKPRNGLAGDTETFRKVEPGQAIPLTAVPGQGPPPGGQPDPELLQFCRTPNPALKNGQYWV

binding result: binds
B1: ch-225.28S antibody (murine 225.28S VH and VL with human constant regions) (antibody, V domains shown)
VH: QVKLQQSGGGLVQPGGSMKLSCVVSGFTFSNYWMNWVRQSPEKGLEWIAEIRLKSNNFGRYYAESVKGRFTISRDDSKSSAYLQMINLRAEDTGIYYCTSYGNYVGHYFDHWGQGTTVTVSS
VL: DIELTQSPKFMSTSVGDRVSVTCKASQNVDTNVAWYQQKPGQSPEPLLFSASYRYTGVPDRFTGSGSGTDFTLTISNVQSEDLAEYFCQQYNSYPLTFGGGTKLEIK
notes: also called mVH/mVL
